The target of assay [1] is E. coli β clamp (β subunit of DNA polymerase III, dnaN gene product), N-tagged (E. coli) (UniProt P0A988). Kind of assay: SPR competition against P1, ratio of IC50 values; written as printed, the two labels seem exchanged against Table 14 and paragraph 151.
Assay [2] shares this target. Briefly: SPR competition against P1.
Assay [3] shares this target. Briefly: ITC, peptide 400 µM into β ring 20 or 30 µM, 25° C. For orientation: In ITC the heat of successive injections is recorded.
The target is the same in assay [4].
The target in assay [5] is E. coli β clamp (β subunit of DNA polymerase III, dnaN gene product) (E. coli) (UniProt P0A988). Kind of assay: SPR competition: peptide with β ring injected on immobilized P1.
Sequence of E. coli β clamp (β subunit of DNA polymerase III, dnaN gene product) (E. coli) (P0A988 whole entry): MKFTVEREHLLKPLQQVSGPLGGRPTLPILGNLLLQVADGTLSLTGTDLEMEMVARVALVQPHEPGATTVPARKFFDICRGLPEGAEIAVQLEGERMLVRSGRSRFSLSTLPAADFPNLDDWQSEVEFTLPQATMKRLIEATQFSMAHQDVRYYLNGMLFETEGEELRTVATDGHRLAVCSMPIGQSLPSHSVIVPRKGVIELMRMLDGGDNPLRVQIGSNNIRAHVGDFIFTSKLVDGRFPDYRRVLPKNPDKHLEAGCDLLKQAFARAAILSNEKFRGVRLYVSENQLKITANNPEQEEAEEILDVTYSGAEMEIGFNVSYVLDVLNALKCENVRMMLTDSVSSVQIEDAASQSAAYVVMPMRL
For assay [6] the target is unchanged. Kind of assay: SPR competition, concentration of peptide that challenges 50% of the binding of β ring to P1.
For assay [7], the target named is E. coli β clamp (β subunit of DNA polymerase III, dnaN gene product), N-tagged (E. coli) (UniProt P0A988). Kind of assay: SPR competition on immobilised P1; ΔG = -RT ln Ki.
Assay [8] shares this target. Kind of assay: SPR competition on immobilised P1.
Assay [9] has the same target. Briefly: SPR competition (Biacore 3000): β ring 0.25 µM mixed with the challenger, injected on immobilised P1. For orientation: Surface plasmon resonance follows binding to a sensor surface in real time, without labels.
Assay [10] concerns the target T1, E. coli β clamp (β subunit of DNA polymerase III, dnaN gene product) (E. coli, UniProt P0A988 1-366).
T1 construct: Homodimeric ring; N-tagged protein expressed in BL21 E. coli and purified on Ni-NTA and MonoQ; also called β ring; β protein; not shown: N-terminal tag from the pET15b plasmid
Kind of assay: SPR competition; ΔG = -RT ln Ki.

Assay [11] has as its target T1, E. coli β clamp (β subunit of DNA …). Kind of assay: SPR competition: peptide with β ring injected on immobilized P1.
Assay [12] shares this target. The assay is described as above. The source holds these as a separate data set.
Assay [13] addresses T2, E. coli β clamp (β subunit of DNA polymerase III, dnaN gene product) (E. coli, UniProt P0A988 1-366).
T2 construct: Expressed in BL21 E. coli from pET15b with an N-terminal tag; also called β ring; β protein; not shown: N-terminal tag from plasmid pET15b ('N-tagged protein', purified on Ni-NTA)
Briefly: ITC, peptide 400 µM into β ring 30 µM, 25 °C.

Assay [14] deals with T2, E. coli β clamp (β subunit of DNA …). Kind of assay: ITC, peptide 400 µM into β ring 30 µM, 25 °C, second experiment.
Assay [15] addresses T3, E. coli β clamp (β subunit of DNA polymerase III, dnaN gene product), N-tagged (E. coli, UniProt P0A988 1-366).
T3 construct: The dnaN gene was cloned in pET15b and expressed in BL21 E. coli; also called β ring; β protein; not shown: N-terminal tag from the pET15b vector (N-tagged protein, enriched on Ni-NTA)
Briefly: SPR competition on immobilised P1; ΔG = -RT ln Ki.

Assay [16] concerns the target T3, E. coli β clamp (β subunit of DNA …). Kind of assay: SPR competition on immobilised P1.
For assay [17] the target is unchanged. Kind of assay: cell-based or functional assay.
Assay [18] has as its target T2, E. coli β clamp (β subunit of DNA …). Briefly: SPR competition, β ring on immobilised P1.

Values joined by “and” are separate entries in the source; they are usually repeats but may differ in a detail not shown here. Equal entries are not always repeated. Square brackets hold non-standard residues; d marks the D form. Phe(3,4-Cl2) = N[C@@H](Cc1ccc(Cl)c(Cl)c1)C(=O)O; Phe(4-Br) = N[C@@H](Cc1ccc(Br)cc1)C(=O)O; Phe(4-Cl) = N[C@@H](Cc1ccc(Cl)cc1)C(=O)O; Phe(4-Me) = Cc1ccc(C[C@H](N)C(=O)O)cc1; Cha = N[C@@H](CC1CCCCC1)C(=O)O

Sequence of E. coli β clamp (β subunit of DNA polymerase III, dnaN gene product), N-tagged (E. coli) (P0A988 whole entry): as above
T3 sequence (P0A988 whole entry): as above

Regarding P14-7 (Ac R Q Cha R L F) (peptide), the results for the affinity ratio against P7 in assay [1] and in [2] were 5 fold and greater than 50 fold, respectively.
As a reminder, the Kd is the free concentration of one partner at which half of the binding sites on the other are occupied at equilibrium, for simple one-to-one binding. In assay [3], P11 (Ac-Q Cha DL pMeF) (peptide) displayed a Kd of 380 nM. In [4], the IC50, Pol IV based biochemical assay (inhibition of β dependent Pol IV elongation) stood at 2000 nM.
The IC50 is the concentration that gives 50% inhibition. A high value points to weaker potency in that assay. Molecule P16, Ac Q Cha D hLeu F (peptide) had an IC50 in assay [5] of 230 nM.
P13 (Ac-Q Cha DL pBrF) (peptide) displayed an equilibrium dissociation constant (Kd) in assay [3] of 150 nM. In assay [4], this molecule had an IC50, Pol IV based biochemical assay (inhibition of β dependent Pol IV elongation) of 250 nM.
By Ki is commonly meant a dissociation constant, usually derived from enzyme kinetics or from competition with a known ligand. Turning to “P14-5 (Cin R Q Cha N L diClF) (peptide; other documents disagree on this pair)”, the Ki in assay [6] is 3250 nM.
The molecule P12 (Ac-Q Cha DL pClF) (peptide) showed a Kd in assay [3] of 100 nM. This molecule came in with an IC50, Pol IV based biochemical assay (inhibition of β dependent Pol IV elongation) in [4] of 300 nM.
In turn, “P2 (RQLVLL) (peptide; other documents disagree on this pair)” showed a ΔG in assay [7] of -6.54 kcal/mol. For the same molecule, the fold decrease in interaction against P1 in assay [8] is 2 fold and 3 fold. The IC50 in assay [9] stood at 21500 nM.
For P3 (RQLVLF) (peptide), in assay [4], the IC50, Pol IV based biochemical assay (inhibition of β dependent Pol IV elongation) amounted to 7000 nM.
“P14-8 (Ac R Q Cha K L F) (peptide; other documents disagree on this pair)”: the affinity ratio against P7 in assay [1] came to 50 fold. In assay [2], this molecule returned a Ki of 1000 nM and a fold decrease in affinity against P14 of 10 fold. In addition, in assay [6], the Ki came out at 904 nM.
As to “P21, Ac-Q Cha DLW (peptide; other documents disagree on this pair)”, in [5], the IC50 worked out at 640 nM.
As to P18, Ac Q Cha D hCha F (peptide), in [5], the IC50 came to 720 nM.
Regarding P22, Ac-Q Cha DL Atda (peptide), the IC50 in [5] worked out at 3720 nM.
Same read-out and setting: for “P23, Ac-QFDLF (peptide; other documents disagree on this pair)” the value was 31600 nM; for P17, Ac Q Cha D Cha F (peptide), 310 nM.
Regarding “P4 (RQLVFL) (peptide; other documents disagree on this pair)”, the IC50 in [9] turned out to be 256000 nM.
In the case of P20, Ac-Q Cha DL Cha (peptide), the IC50 in assay [5] was 410 nM.
Still for that read-out and setting: for P19, Ac Q ChaD NptGly F (peptide) the value was 5630 nM.

B1: P1, H-Arg-Gln-Leu-Val-Leu-Gly-Leu-OH (peptide)
peptide: H-RQLVLGL-OH
notes: also called RQLVLGL; natural Cter heptamer of E. coli DNA polymerase IV
Consider B1, for which, in [10], the ΔG is -7.06 kcal/mol. The IC50 in assay [11] was 8850 nM.

B2: P13, Ac-Gln-Cha-Asp-Leu-pBrPhe-OH (peptide)
peptide: Ac-Q[Cha]DL[Phe(4-Br)]-OH
SMILES: CC(=O)N[C@@H](CCC(N)=O)C(=O)N[C@@H](CC1CCCCC1)C(=O)N[C@@H](CC(=O)O)C(=O)N[C@@H](CC(C)C)C(=O)N[C@@H](Cc1ccc(Br)cc1)C(=O)O
notes: X stands for Cha; the substituted phenylalanine is written F; also called Ac-Q Cha DL pBrF
On to B2, for which, in assay [10], the ΔG was -9.71 kcal/mol. The IC50 came out at 96 nM in [11] and 100 nM in assay [12].
The molecule Ac-QLDLF-OH (also called AcQLDLF) [P6, Ac-Gln-Leu-Asp-Leu-Phe-OH] registered a ΔG in assay [10] of -8.22 kcal/mol.
In [13], Ac-QLDLF-OH (also called Ac-Gln-Leu-Asp-Leu-Phe-OH) [P6 (AcQLDLF), listing 1 of 2 here] had a Kd of 820 nM, a ΔH of -11.3 kcal/mol and a ΔS of -10.4 cal/mol/deg. In addition, in assay [14], the affinity, expressed as Kd, was 613 nM; the ΔG was -8.3 kcal/mol; the ΔH was -11.1 kcal/mol; the ΔS was -9.08 cal/mol/deg.

B3: E. coli DNA polymerase IV (enzyme)
chain: MRKIIHVDMDCFFAAVEMRDNPALRDIPIAIGGSRERRGVISTANYPARKFGVRSAMPTGMALKLCPHLTLLPGRFDAYKEASNHIREIFSRYTSRIEPLSLDEAYLDVTDSVHCHGSATLIAQEIRQTIFNELQLTASAGVAPVKFLAKIASDMNKPNGQFVITPAEVPAFLQTLPLAKIPGVGKVSAAKLEAMGLRTCGDVQKCDLVMLLKRFGKFGRILWERSQGIDERDVNSERLRKSVGVERTMAEDIHHWSECEAIIERLYPELERRLAKVKPDLLIARQGVKLKFDDFQQTTQEHVWPRLNKADLIATARKTWDERRGGRGVRLVGLHVTLLDPQMERQLVLGL
notes: Called the whole polymerase / the full PolIV enzyme; construct and tags not described; also called PolIV; Pol IV
As for B3, in assay [15], the ΔG is -9.09 kcal/mol.

B4: E. coli DNA polymerase IV (enzyme)
chain: B3 chain
notes: also called PolIV; Pol IV
As to B4, the ΔG in assay [10] is -9.09 kcal/mol.

B5: P12, Ac-Gln-Cha-Asp-Leu-pClPhe-OH (peptide)
peptide: Ac-Q[Cha]DL[Phe(4-Cl)]-OH
SMILES: CC(=O)N[C@@H](CCC(N)=O)C(=O)N[C@@H](CC1CCCCC1)C(=O)N[C@@H](CC(=O)O)C(=O)N[C@@H](CC(C)C)C(=O)N[C@@H](Cc1ccc(Cl)cc1)C(=O)O
notes: X stands for Cha; the substituted phenylalanine is written F; also called Ac-Q Cha DL pClF
In the case of B5, in assay [10], the ΔG is -9.73 kcal/mol. In addition, the 50% inhibitory concentration (IC50) in assay [11] and in [12] was 160 nM in each case.
In the case of Ac-QLDLF-OH (also called Ac-Gln-Leu-Asp-Leu-Phe-OH) [P6 (AcQLDLF), listing 2 of 2 here], the “times tighter binding than P1” value in [16] was roughly 8 fold. Also, the “IC50, Pol IV based biochemical assay (inhibition of β dependent Pol IV elongation)” value in [17] is 4500 nM. The same molecule displayed a ΔG in assay [15] of -8.22 kcal/mol.
Molecule QLDLF [P5 (QLDLF)] displayed a ΔG in [15] of -6.87 kcal/mol.

B6: P11, Ac-Gln-Cha-Asp-Leu-pMePhe-OH (peptide)
peptide: Ac-Q[Cha]DL[Phe(4-Me)]-OH
SMILES: CC(=O)N[C@@H](CCC(N)=O)C(=O)N[C@@H](CC1CCCCC1)C(=O)N[C@@H](CC(=O)O)C(=O)N[C@@H](CC(C)C)C(=O)N[C@@H](Cc1ccc(C)cc1)C(=O)O
notes: X stands for Cha; the substituted phenylalanine is written F; also called Ac-Q Cha DL pMeF
For the molecule B6, the ΔG in [10] is -9.44 kcal/mol. Further, the IC50 in [11] and in [12] was 260 nM throughout.
With H-QLDLF-OH (also called QLDLF) [P5, H-Gln-Leu-Asp-Leu-Phe-OH], the ΔG in assay [10] was -6.87 kcal/mol.

B7: P14, Ac-Gln-Cha-Asp-Leu-(3,4-di-Cl)Phe-OH (peptide)
peptide: Ac-Q[Cha]DL[Phe(3,4-Cl2)]-OH
SMILES: CC(=O)N[C@@H](CCC(N)=O)C(=O)N[C@@H](CC1CCCCC1)C(=O)N[C@@H](CC(=O)O)C(=O)N[C@@H](CC(C)C)C(=O)N[C@@H](Cc1ccc(Cl)c(Cl)c1)C(=O)O
notes: X stands for Cha; the substituted phenylalanine is written F; also called Ac-Q Cha DL diClF; Bu29
On to B7, for which the ΔG in assay [10] was -9.85 kcal/mol. Besides, the figures for the IC50 in [11] and in [12] were 77 nM and 72 nM, respectively.

B8: P1, natural C-terminal heptapeptide of E. coli DNA polymerase IV (RQLVLGL) (peptide)
peptide: H-RQLVLGL-OH
notes: Free peptide in ITC; also called H-Arg-Gln-Leu-Val-Leu-Gly-Leu-OH
In assay [13], B8 had a Kd of 1580 nM, a ΔG of -7.9 kcal/mol, a ΔH of -4.09 kcal/mol and a ΔS of 12.8 cal/mol/deg. Besides, the IC50 in [18] stood at 8850 nM. In assay [14], this molecule had a Kd of 2010 nM, a ΔG of -7.7 kcal/mol, a ΔH of -5.5 kcal/mol and a ΔS of 7.6 cal/mol/deg.

The record behind these values is patent US20140287989A1 (CENTRE NATIONAL DE LA RECHERCHE SCIENTIFIQUE, published 2014).
